The results in this text go back to paper PMC5737217 (Nucleic Acids Research, 2017).

Series [1] deals with tSTATcc (truncated STAT1, C-C dimer) (UniProt P42224 132-713, A656C;N658C). The series is described as follows: Spec-seq.
Another series has as its target tSTATcc-N460H (UniProt P42224 132-713, N460H;A656C;N658C). The series is described as follows: Spec-seq.
The series “non-reducing SDS-PAGE” concerns the molecule itself. Nature of the series: non-reducing SDS-PAGE.

Sequence of tSTATcc-N460H (P42224 132-713 N460H/A656C/N658C): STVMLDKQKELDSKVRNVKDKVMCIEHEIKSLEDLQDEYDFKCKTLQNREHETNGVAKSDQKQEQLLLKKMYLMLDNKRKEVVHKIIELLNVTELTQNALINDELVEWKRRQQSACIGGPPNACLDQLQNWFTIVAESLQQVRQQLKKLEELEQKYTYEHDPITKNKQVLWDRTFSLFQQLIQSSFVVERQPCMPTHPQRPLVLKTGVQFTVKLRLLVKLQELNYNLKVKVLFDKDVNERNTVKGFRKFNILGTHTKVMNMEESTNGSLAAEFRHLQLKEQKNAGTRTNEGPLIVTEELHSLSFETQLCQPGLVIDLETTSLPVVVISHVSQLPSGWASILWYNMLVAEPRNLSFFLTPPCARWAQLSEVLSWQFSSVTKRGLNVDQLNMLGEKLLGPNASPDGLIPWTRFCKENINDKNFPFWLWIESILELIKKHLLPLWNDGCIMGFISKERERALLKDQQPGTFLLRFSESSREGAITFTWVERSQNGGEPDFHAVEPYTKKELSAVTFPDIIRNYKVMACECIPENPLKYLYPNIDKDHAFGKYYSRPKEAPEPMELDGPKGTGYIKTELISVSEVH

B1: 1C_GAS (dsDNA)
DNA 1: GCTGCCACTAGAGTTTTTTCGGGAAAAGATCATCAAGAGCACACGGG
DNA 2: CCCGTGTGCTCTTGATGATCTTTTCCCGAAAAAACTCTAGTGGCAGC
On to B1, for which the figures for the binding signal (in series [1]; with tSTATcc-N460H) were 1.6 kT (ddG vs 2C_GAS) and 1.8 kT (ddG vs 2C_GAS), respectively.

B2: 0T_GAS (dsDNA)
DNA 1: GCTGCCACTAGAGTTTTTTTAGGAAAAGATCATCAAGAGCACACGGG
DNA 2: CCCGTGTGCTCTTGATGATCTTTTCCTAAAAAAACTCTAGTGGCAGC
As to B2, the binding signal in series [1] is 1.5 kT (ddG vs 2C_GAS); in the series with tSTATcc-N460H it was 1.8 kT (ddG vs 2C_GAS).

B3: 1T_GAS (dsDNA)
DNA 1: GCTGCCACTAGAGTTTTTCTAGGAAAAGATCATCAAGAGCACACGGG
DNA 2: CCCGTGTGCTCTTGATGATCTTTTCCTAGAAAAACTCTAGTGGCAGC
In the case of B3, the binding signal (in series [1]; with tSTATcc-N460H) was 1.7 kT (ddG vs 2C_GAS) throughout.

B4: 3C_GAS (dsDNA)
DNA 1: GCTGCCACTAGAGTTTTCCCGGGAAAAGATCATCAAGAGCACACGGG
DNA 2: CCCGTGTGCTCTTGATGATCTTTTCCCGGGAAAACTCTAGTGGCAGC
In the case of B4, the binding signal (in series [1]; in the series with tSTATcc-N460H) was 1.6 kT (ddG vs 2C_GAS) throughout.

B5: 2T_GAS (dsDNA)
DNA 1: GCTGCCACTAGAGTTTTCCTAGGAAAAGATCATCAAGAGCACACGGG
DNA 2: CCCGTGTGCTCTTGATGATCTTTTCCTAGGAAAACTCTAGTGGCAGC
With B5, the binding signal in series [1] is 1.9 kT (ddG vs 2C_GAS); with tSTATcc-N460H it was 1.7 kT (ddG vs 2C_GAS).

B6: tSTATcc (truncated STAT1α, amino acids 132–713, with A656C and N658C) (domain or fragment, UniProt P42224 132-713, looked up)
chain: STVMLDKQKELDSKVRNVKDKVMCIEHEIKSLEDLQDEYDFKCKTLQNREHETNGVAKSDQKQEQLLLKKMYLMLDNKRKEVVHKIIELLNVTELTQNALINDELVEWKRRQQSACIGGPPNACLDQLQNWFTIVAESLQQVRQQLKKLEELEQKYTYEHDPITKNKQVLWDRTFSLFQQLIQSSFVVERQPCMPTHPQRPLVLKTGVQFTVKLRLLVKLQELNYNLKVKVLFDKDVNERNTVKGFRKFNILGTHTKVMNMEESTNGSLAAEFRHLQLKEQKNAGTRTNEGPLIVTEELHSLSFETQLCQPGLVIDLETTSLPVVVISNVSQLPSGWASILWYNMLVAEPRNLSFFLTPPCARWAQLSEVLSWQFSSVTKRGLNVDQLNMLGEKLLGPNASPDGLIPWTRFCKENINDKNFPFWLWIESILELIKKHLLPLWNDGCIMGFISKERERALLKDQQPGTFLLRFSESSREGAITFTWVERSQNGGEPDFHAVEPYTKKELSAVTFPDIIRNYKVMACECIPENPLKYLYPNIDKDHAFGKYYSRPKEAPEPMELDGPKGTGYIKTELISVSEVH
Take B6: the stoichiometry N (commonly the number of molecules, sites or subunits per partner or assembly) in the series “non-reducing SDS-PAGE” came to 2.
